Assay results published in PMC5730761, “NS3 from Hepatitis C Virus Strain JFH-1 Is an Unusually Robust Helicase That Is Primed To Bind and Unwind Viral RNA”.

Assays:
gt1b NS3 [1] = target: T1, gt1b NS3 (Hepatitis C virus genotype 1b strain N, UniProt Q9WPH5 1028-1658); assay: filter binding; 3 mM Mg2+; (stopped-flow kon 3.5 uM-1 s-1, Fig 2C); 25 mM MOPS-NH4+ pH 6.5, 3 mM MgCl2, 30 mM NaCl, 1% glycerol, 2 mM DTT, 0.1% Triton X-100; filter binding 37 C, 0.5 nM RNA, Hill fit; stopped flow 25 C; settings: protein: recombinant; tags: His6-SUMO removed (native N terminus); 5' Cy3 top strand via C3 amino linker (stopped flow); 3' overhang 6 nt on strand 1
JFH-1 NS3 [2] = target: T2, JFH-1 NS3 (Hepatitis C virus genotype 2a strain …, UniProt Q99IB8 1031-1661); assay: filter binding; 3 mM Mg2+; (stopped-flow kon 15 uM-1 s-1, Fig 2C); 25 mM MOPS-NH4+ pH 6.5, 3 mM MgCl2, 30 mM NaCl, 1% glycerol, 2 mM DTT, 0.1% Triton X-100; filter binding 37 C, 0.5 nM RNA, Hill fit; stopped flow 25 C; settings: protein: recombinant; tags: His6-SUMO removed (native N terminus); 5' Cy3 top strand via C3 amino linker (stopped flow); 3' overhang 6 nt on strand 1
JFH-1 NS3 [3] = target: T2, JFH-1 NS3; assay: filter binding; 3 mM Mg2+; (stopped-flow kon 69 uM-1 s-1, Fig 2B); 25 mM MOPS-NH4+ pH 6.5, 3 mM MgCl2, 30 mM NaCl, 1% glycerol, 2 mM DTT, 0.1% Triton X-100; filter binding 37 C, 0.5 nM RNA, Hill fit; stopped flow 25 C; settings: protein: recombinant; tags: His6-SUMO removed (native N terminus); 5' Cy3 top strand via C3 amino linker (stopped flow); 3' overhang 12 nt on strand 1
gt1b NS3 [4] = target: T1, gt1b NS3; assay: filter binding; 3 mM Mg2+; (stopped-flow kon 9.9 uM-1 s-1, Fig 2B); 25 mM MOPS-NH4+ pH 6.5, 3 mM MgCl2, 30 mM NaCl, 1% glycerol, 2 mM DTT, 0.1% Triton X-100; filter binding 37 C, 0.5 nM RNA, Hill fit; stopped flow 25 C; settings: protein: recombinant; tags: His6-SUMO removed (native N terminus); 5' Cy3 top strand via C3 amino linker (stopped flow); 3' overhang 12 nt on strand 1
JFH-1 NS3 [5] = target: T2, JFH-1 NS3; assay: filter binding; 3 mM Mg2+; legend names NS3-4A; 25 mM MOPS-NH4+ pH 6.5, 3 mM MgCl2, 30 mM NaCl, 1% glycerol, 2 mM DTT, 0.1% Triton X-100; filter binding 37 C, 0.5 nM RNA, Hill fit; stopped flow 25 C; settings: protein: recombinant; tags: His6-SUMO removed (native N terminus); label: 5'-32P
gt1b NS3 [6] = target: T1, gt1b NS3; assay: as above; settings: protein: recombinant; tags: His6-SUMO removed (native N terminus); label: 5'-32P
JFH-1 NS3 [7] = target: T2, JFH-1 NS3; assay: filter binding; 3 mM Mg2+; (stopped-flow kon 59 uM-1 s-1, Fig 2A); 25 mM MOPS-NH4+ pH 6.5, 3 mM MgCl2, 30 mM NaCl, 1% glycerol, 2 mM DTT, 0.1% Triton X-100; filter binding 37 C, 0.5 nM RNA, Hill fit; stopped flow 25 C; settings: protein: recombinant; tags: His6-SUMO removed (native N terminus); 5' Cy3 top strand via C3 amino linker (stopped flow); 3' overhang 18 nt on strand 1
gt1b NS3 [8] = target: T1, gt1b NS3; assay: filter binding; 3 mM Mg2+; (stopped-flow kon 13 uM-1 s-1, Fig 2A); 25 mM MOPS-NH4+ pH 6.5, 3 mM MgCl2, 30 mM NaCl, 1% glycerol, 2 mM DTT, 0.1% Triton X-100; filter binding 37 C, 0.5 nM RNA, Hill fit; stopped flow 25 C; settings: protein: recombinant; tags: His6-SUMO removed (native N terminus); 5' Cy3 top strand via C3 amino linker (stopped flow); 3' overhang 18 nt on strand 1

B1: 12bp/6-OH (dsRNA)
RNA 1: CGGCAGCGAGGCAGGACA
RNA 2: GCCUCGCUGCCG
gt1b NS3 [1]
  Kd: 60.4 ± 4.38 nM
JFH-1 NS3 [2]
  Kd: 14.9 ± 0.52 nM

B2: 12bp/12-OH (dsRNA)
RNA 1: CGGCAGCGAGGCAGAGGAGCAGCA
RNA 2: GCCUCGCUGCCG
JFH-1 NS3 [3]
  Kd: 7.69 ± 0.21 nM
gt1b NS3 [4]
  Kd: 15.7 ± 0.61 nM

## CUGUGGCAUGUCCUAGCGUCGUAUCGAUCUGGUC (ssRNA) [ssT34]
JFH-1 NS3 [5]
  Kd: 8.36 ± 0.29 nM
gt1b NS3 [6]
  Kd: 7.56 ± 0.33 nM

B3: 12bp/18-OH (dsRNA)
RNA 1: CGGCAGCGAGGCAGAGGAGCAGAGGGAGCA
RNA 2: GCCUCGCUGCCG
JFH-1 NS3 [7]
  Kd: 6.56 ± 0.23 nM
gt1b NS3 [8]
  Kd: 7.25 ± 0.17 nM
